Reference: the nanobody polyreactivity screen of Harvey et al. (2022)

Test: yeast display, Sf9 membrane polyspecificity reagent, FACS + sequencing; frameworks hold sequencing errors
Procedure, shortened: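 In a synthetic yeast display library (Saccharomyces cerevisiae BJ5465), nanobody expression was induced with galactose for 36–48 hours. FACS gates were set low and high (top ~1%) using anti-HA fluorescence for expression and streptavidin fluorescence for binding of the Sf9 membrane reagent. Each polyreactivity label is drawn from the gate of origin.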

Sequence | polyreactivity (PSR sort gate)
QVQLVESGGGLVQAGGSLRLSCAASGFTFPRYAMGWYRQAPGKERELVAAISYRGGSTYYADSVKGRFTISRDTAKNTVYLQMNSLKPEDTAVSYCNAVGGPVRGYPYDYWGQGTQVTVSS | high polyreactivity
QVQLVESGGGLVQAGGSLRLSCAASGFTFPRYAMGWYRQAPGKERELVAAITTSVGNTYYADSVKGRFTISRDNAKNTVYLQMNSLKPEDTAVYYCSTIYDHFDYWGQGTQVTVSS | low polyreactivity
QVQLVESGGGLVQAGGSLRLSCAASGFTFPRYAMGWYRQAPGKVRQLVAAISYRGGRTYYADSVKWRFTISRDNAKNTVFLQMNSLKPEDTAVYYCAADKTPSARYDYWGQGTQVTVSS | high polyreactivity
QVQLVESGGGLVQAGGSLRLSCAASGFTFPSYAMAWYRQDPGKEREFVAGITKGGGNTYYADAVKGRFTISRDNAKNTVYLQKNSLKQEDTAVYYCSADRSSFYWSHGTVYGYDYWGQGTQVTVSS | low polyreactivity
QVQLVESGGGLVQAGGSLRLSCAASGFTFPSYAMGWYRQAPGKERELVAAISQRGGSTYYADSVKGRFTISRDNAKNTVYLQMNSLKPEDTAVYYCAALAPRTGRPTYGYWGQGTQVTVSS | low polyreactivity
QVQLVESGGGLVQAGGSLRLSCAASGFTFPSYAMGWYRQAPGKERELVAAISSRGGSTYYADSVKGRFTISRDNAKNTVYLQMNSLKPEDTAVYYCNRLQVYSYYPYYPWYNYWGQGTQVTVSS | high polyreactivity
QVQLVESGGGLVQAGGSLRLSCAASGFTFPTYAMGWYRQAPGKERELVAAISTSGARTYYADSVKGRFTISRDNAKNTVYLQMNSLKPEDTAVYYCAAVFKAGSAYDYWGQGTQVTVSS | high polyreactivity
QVQLVESGGGLVQAGGSLRLSCAASGFTFPVYAMGWYRQAPGKEREFVAAITYIGGSTYADSVKGRFTISRDNAKNTVYLQMNSLKPEDTAVYYCNADDARLFDYWGQGTQVTVSS | low polyreactivity
QVQLVESGGGLVQAGGSLRLSCAASGFTFPWNVMGWYRQAPGKERELVAAITYDGGGTYADSVKGRFTISRDNAKNTVYLQMNSLKPEDTEVYFCNADLIYGEVYDYWGQGTQVTVSS | low polyreactivity
QVQLVESGGGLVQAGGSLRLSCAASGFTFPWYAMGWYRQAPGKERELVASISYRGDSTYYSDSVKGRFTISRDNAKNTVYLQMNSLKPEDTAVYYCADDYLWYNYAGQVDHDYDYWGQGTQVTVSS | low polyreactivity
QVQLVESGGGLVQAGGSLRLSCAASGFTFPYNAMGWYRQAPGKERELVAAISSTGGITYYADSVKGRFTISRDNEKNTVYLQMNSLKPEDTAVYYCNAGYPDYDWTWWHISYDYWGQGTQVTVSS | low polyreactivity
QVQLVESGGGLVQAGGSLRLSCAASGFTFPYNAMGWYSQARGKERELVAAISRSGTRTYYADSVKGRFTISRDNAKNTVYLQMNSLKPEDTAVYYCNARAAGYSRRGPGFDYWGQGTQVTVSS | high polyreactivity
QVQLVESGGGLVQAGGSLRLSCAASGFTFPYYAMGWYRQAPGKERELVAAITGRGGSTYYADSVKGRFTISRDNAKNTVYLQMNSLKPVDTAVFYCNAVRFAIHLADPYDYWGQGTQVTVSS | high polyreactivity
QVQLVESGGGLVQAGGSLRLSCAASGFTFPYYAMGWYSQAPGKERELVAAINRSGGITYYADSVRGRFTISRDNAKNTVYLQMKSLKPEDTAVYYCAAPSFGYRTWSVFGSGHDYWGQGTQVTVSS | high polyreactivity
QVQLVESGGGLVQAGGSLRLSCAASGFTFPYYSMGWYRQAPGTERELVAPISYNGGSTYYADSVMGRFTISRDNAKNTVYLQMNSRNPEDTAVYYCNAVYSDSGVVGYYYWGQGTQVTVSS | high polyreactivity
QVQLVESGGGLVQAGGSLRLSCAASGFTFQENAMGWYRQAPGKERELVAAISKSGGITYYADSVKGRFTISRDNAKNTVYLHMNSLKPEDTAVYYCNKGNAYVVYTSGYDYWGQGTQVTVSS | low polyreactivity

Sequence | polyreactivity (PSR sort gate)
QVQLVESGGGLVQAGGSLRLSCAASGFTFQENAMGWYRQAPGKERELVAAISYGGGSTYYADSVKGRFTISRDNAKNTVYLQMNSLKPEDTAVYYCAADGGSAYAWYFAELYGYWGQGTQVTVSS | low polyreactivity
QVQLVESGGGLVQAGGSLRLSCAASGFTFQLYAMGWYRQAPGKERELVAAISSSGTSTYYADSVKGRFTISRDNAKNTVFLQMNSLKPEDTAVYYCAARGPYTYRRYGYWGQGTQVTVSS | high polyreactivity
QVQLVESGGGLVQAGGSLRLSCAASGFTFQNYAMGWYRQAPGKERELVAAISWGGGSTYYADSVKGRFTISRDNAQNTVYLQMNSLKPEDTAVYYCNAYEYLSAGYDYWGQGTQVTVSS | low polyreactivity
QVQLVESGGGLVQAGGSLRLSCAASGFTFQRYAKGWYRQAPGKERDLVAAITRNGGSTYYADSVKGRFTISRDNAKNTVYLQMNSLKPDDTAVYYCNAEWFQFYWYPHYKVTRYEYWGQVTQVTVSS | high polyreactivity
QVQLVESGGGLVQAGGSLRLSCAASGFTFQYYAMGWYRQAPGKERELVAAISWSGASTYYADSVKGRFTISRDNAKNTVYLQMNSLKPEDTAVYYCAADYWGHEYDYWGQGTQVTVSS | high polyreactivity
QVQLVESGGGLVQAGGSLRLSCAASGFTFQYYAMGWYRQAPGKERELVAAISWSGTSPYYADSVKGRFTISRDNAKNTVYLQMISLKPADTAVYDCAASVWYYYSDYDYWGQGTQVTVSS | high polyreactivity
QVQLVESGGGLVQAGGSLRLSCAASGFTFQYYAMGWYRQAPVKERELVAAINWSGGRTYYADSVKGRFTISRDNAKNTVYLQMNSLKPEDTAVYYCAAPRSFSGGYGYVSYDYWGQGTQVTVSS | high polyreactivity
QVQLVESGGGLVQAGGSLRLSCAASGFTFQYYDMGWYRQAPGKERELVAAISWSGGSTYYADSVKGRFTISRDNAKNTVYFQMNSLKPEDTAVYYCAAGYTRSRHYTPYDYWGQGTQVTVSS | high polyreactivity
QVQLVESGGGLVQAGGSLRLSCAASGFTFQYYTMGWYRQAPGKERELLAAITYSGSTYYADSVKGRFTISRDNAKNTVYLQMNSLKPEDTAVYYCNVYRGRYLYAWRPLGYWGQGTQVTVSS | high polyreactivity
QVQLVESGGGLVQAGGSLRLSCAASGFTFRAYAMGWYRQAPGKERELVAAISWGGGSTYYADSVKGRFTISRDNAKNTVYLQMNSLKPEDTAVYYCATERRRYNTEYEYWGQGTQVTVSS | high polyreactivity
QVQLVESGGGLVQAGGSLRLSCAASGFTFRDYAMGWYRQAPGKEREFFADITFSGDNTRYADSVKGRFTISRDNAQNTVYLQMNSLKPEDTAVYYCNADRVVGPYDGYDYWGQGTQVTVSS | low polyreactivity
QVQLVESGGGLVQAGGSLRLSCAASGFTFRDYAMGWYRQAPGKERELVAAITRSGGRTYYADSVKGRFTISRDNAKNTVYLQMNSLKPEDTAVYYCNALDYLYGGIYLEEDYWGQGTQVTVSS | low polyreactivity
QVQLVESGGGLVQAGGSLRLSCAASGFTFRFYALGWYRQAPGKERELVAAISRRGGTTYYADSVKGRFTISRDNAKNTVYLQMNSLKPEDTAVYYCNKDWTYEHGYWGQGTQVTVSS | high polyreactivity
QVQLVESGGGLVQAGGSLRLSCAASGFTFRFYAMGWYRQAPAKERELVAAISRGGSTYYADSVKGRFTISRDNAKYTVYLQMNSLKPEDTAVFYCAKRGRYGDYWGQGTLVTVSS | high polyreactivity
QVQLVESGGGLVQAGGSLRLSCAASGFTFRIYAMGSYRQAPGKERELVAAISWAGGSTFYADSVKGRFTISRDNAKNTVYLQMNSLKPEDTAVYYCAADTAFHYDYWGQGTQVTVSS | low polyreactivity
